Target: plectin-1 (human recombinant protein) (Homo sapiens, UniProt Q15149)
Test: Affinity of anti-plectin-1 antibodies (FIGS. 1A-1B)
Type: binding
Conditions: human recombinant protein and pancreatic cell lines
From the text: FIGS. 1A-1B show representative data for affinity and specificity of an anti-plec1 antibody on human recombinant protein (FIG. 1A) and human (YapC and L3.6pl) and mouse (Han14.3) pancreatic cell lines (FIG. 1B).

Sequence of plectin-1 (human recombinant protein) (Q15149 whole entry): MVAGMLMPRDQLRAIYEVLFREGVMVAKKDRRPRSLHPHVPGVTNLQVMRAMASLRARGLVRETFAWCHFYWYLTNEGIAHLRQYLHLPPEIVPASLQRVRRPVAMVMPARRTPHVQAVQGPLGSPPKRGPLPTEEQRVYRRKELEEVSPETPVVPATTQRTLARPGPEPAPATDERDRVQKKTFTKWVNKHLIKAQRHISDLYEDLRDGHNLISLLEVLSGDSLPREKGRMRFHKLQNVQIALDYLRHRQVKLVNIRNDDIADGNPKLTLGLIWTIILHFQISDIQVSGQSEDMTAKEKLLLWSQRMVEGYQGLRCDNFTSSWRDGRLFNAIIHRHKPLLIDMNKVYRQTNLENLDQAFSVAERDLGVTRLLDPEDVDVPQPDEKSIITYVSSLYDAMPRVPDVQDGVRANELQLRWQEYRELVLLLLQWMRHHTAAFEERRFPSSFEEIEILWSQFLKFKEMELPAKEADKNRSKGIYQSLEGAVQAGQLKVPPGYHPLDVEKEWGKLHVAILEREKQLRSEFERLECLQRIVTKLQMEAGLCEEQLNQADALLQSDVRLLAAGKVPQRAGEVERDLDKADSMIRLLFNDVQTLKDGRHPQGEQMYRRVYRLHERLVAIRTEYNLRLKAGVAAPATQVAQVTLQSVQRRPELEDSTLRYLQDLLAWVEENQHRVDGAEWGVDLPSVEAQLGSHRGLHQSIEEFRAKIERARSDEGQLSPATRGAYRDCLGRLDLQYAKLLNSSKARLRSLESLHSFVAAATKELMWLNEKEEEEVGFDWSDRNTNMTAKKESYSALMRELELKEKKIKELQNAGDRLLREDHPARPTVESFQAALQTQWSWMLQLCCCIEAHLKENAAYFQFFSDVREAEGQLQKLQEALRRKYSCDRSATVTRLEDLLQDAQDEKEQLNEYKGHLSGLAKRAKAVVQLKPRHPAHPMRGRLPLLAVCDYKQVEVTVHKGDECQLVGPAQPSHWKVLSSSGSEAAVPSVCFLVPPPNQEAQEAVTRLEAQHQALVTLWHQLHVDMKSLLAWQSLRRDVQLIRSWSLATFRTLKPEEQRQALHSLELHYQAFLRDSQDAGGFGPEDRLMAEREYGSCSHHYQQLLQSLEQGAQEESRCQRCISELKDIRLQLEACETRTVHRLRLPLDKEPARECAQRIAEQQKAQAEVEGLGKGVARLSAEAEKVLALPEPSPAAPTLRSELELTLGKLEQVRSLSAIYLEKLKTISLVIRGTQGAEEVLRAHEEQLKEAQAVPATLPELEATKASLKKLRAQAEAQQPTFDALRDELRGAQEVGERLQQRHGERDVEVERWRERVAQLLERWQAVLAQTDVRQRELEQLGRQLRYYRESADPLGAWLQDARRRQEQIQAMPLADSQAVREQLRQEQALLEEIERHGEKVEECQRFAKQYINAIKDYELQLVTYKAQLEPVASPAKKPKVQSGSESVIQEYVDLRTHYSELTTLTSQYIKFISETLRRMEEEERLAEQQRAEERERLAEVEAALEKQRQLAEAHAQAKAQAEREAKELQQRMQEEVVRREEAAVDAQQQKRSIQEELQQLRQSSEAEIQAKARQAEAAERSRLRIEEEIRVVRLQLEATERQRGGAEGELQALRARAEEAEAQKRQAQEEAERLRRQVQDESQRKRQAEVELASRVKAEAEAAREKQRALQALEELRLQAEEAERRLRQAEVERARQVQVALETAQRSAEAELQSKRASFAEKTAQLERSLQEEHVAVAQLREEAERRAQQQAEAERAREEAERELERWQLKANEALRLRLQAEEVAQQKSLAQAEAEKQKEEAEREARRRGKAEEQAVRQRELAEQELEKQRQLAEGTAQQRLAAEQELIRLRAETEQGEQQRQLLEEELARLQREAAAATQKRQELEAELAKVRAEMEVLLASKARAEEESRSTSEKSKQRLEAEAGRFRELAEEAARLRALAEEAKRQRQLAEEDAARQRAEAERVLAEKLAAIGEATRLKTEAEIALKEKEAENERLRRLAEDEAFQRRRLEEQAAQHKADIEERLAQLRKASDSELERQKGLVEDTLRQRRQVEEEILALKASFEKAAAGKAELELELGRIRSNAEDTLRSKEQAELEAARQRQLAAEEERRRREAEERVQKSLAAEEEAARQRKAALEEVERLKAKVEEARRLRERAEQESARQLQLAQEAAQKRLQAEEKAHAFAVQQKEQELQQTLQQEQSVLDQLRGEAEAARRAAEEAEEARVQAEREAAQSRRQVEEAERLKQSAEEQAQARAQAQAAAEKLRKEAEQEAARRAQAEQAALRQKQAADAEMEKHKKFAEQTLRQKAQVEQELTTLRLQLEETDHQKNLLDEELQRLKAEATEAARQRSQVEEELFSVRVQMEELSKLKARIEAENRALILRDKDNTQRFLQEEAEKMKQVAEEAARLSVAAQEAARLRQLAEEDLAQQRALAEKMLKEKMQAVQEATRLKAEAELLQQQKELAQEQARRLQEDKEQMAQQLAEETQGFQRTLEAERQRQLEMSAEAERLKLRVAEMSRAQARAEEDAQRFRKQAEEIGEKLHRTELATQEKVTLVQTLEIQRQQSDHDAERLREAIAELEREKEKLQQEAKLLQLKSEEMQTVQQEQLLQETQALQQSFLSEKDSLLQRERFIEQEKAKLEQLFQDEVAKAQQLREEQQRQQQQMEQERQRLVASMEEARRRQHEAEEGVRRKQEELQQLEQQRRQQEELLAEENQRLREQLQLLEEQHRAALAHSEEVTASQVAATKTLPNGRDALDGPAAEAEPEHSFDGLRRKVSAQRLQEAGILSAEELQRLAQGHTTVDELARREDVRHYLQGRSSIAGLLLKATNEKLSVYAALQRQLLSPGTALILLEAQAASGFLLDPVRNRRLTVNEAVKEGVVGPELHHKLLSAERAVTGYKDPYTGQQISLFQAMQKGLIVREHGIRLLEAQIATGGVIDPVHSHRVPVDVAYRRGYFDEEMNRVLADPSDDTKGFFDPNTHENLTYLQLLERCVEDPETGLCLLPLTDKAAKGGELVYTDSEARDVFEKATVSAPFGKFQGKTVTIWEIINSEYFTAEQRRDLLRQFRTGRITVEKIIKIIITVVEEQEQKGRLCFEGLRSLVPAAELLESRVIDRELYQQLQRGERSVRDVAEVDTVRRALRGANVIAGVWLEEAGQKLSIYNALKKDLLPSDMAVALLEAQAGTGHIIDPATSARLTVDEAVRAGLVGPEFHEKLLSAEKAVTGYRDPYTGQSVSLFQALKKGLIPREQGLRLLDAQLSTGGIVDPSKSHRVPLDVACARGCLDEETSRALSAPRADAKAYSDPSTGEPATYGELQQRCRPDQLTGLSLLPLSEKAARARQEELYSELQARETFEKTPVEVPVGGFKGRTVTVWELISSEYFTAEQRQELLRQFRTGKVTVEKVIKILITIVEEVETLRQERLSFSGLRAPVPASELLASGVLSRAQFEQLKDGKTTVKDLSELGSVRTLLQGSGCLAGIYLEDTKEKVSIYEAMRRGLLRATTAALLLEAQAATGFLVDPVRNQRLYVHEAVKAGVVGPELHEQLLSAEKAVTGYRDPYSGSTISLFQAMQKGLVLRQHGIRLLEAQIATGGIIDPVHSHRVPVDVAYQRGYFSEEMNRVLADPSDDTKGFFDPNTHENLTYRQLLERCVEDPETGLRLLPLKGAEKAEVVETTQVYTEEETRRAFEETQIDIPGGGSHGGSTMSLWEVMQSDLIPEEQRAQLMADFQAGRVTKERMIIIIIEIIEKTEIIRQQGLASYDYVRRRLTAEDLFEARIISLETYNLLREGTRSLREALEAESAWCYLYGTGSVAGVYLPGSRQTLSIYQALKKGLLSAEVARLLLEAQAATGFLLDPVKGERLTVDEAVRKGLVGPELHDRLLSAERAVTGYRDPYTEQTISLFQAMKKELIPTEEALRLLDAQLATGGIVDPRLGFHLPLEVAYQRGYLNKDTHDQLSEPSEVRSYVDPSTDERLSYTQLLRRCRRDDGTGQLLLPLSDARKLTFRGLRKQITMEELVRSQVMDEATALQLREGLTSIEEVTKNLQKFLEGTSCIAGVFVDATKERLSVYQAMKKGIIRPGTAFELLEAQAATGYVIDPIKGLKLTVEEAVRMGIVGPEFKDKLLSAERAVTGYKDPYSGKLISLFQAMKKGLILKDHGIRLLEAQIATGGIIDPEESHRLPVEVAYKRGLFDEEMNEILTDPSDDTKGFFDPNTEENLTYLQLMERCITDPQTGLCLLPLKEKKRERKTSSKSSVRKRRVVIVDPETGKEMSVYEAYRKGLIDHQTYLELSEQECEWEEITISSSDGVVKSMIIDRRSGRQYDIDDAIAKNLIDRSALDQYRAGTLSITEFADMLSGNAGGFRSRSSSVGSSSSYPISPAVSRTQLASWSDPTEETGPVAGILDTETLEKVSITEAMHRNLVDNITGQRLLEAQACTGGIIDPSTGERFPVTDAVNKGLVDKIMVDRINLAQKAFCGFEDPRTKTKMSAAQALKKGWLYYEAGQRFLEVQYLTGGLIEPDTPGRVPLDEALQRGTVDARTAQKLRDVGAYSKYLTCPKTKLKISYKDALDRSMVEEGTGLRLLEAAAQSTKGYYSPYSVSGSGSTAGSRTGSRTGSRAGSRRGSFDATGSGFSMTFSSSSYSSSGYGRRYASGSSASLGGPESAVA

affinity among anti-plectin-1 antibodies tested: highest affinity
B1: Pab2: anti-plectin-1 antibody; heavy chain variable region SEQ ID NO: 23, light chain variable region SEQ ID NO: 45 (antibody, V domains shown)
VH: EVQLVESGGDLVKPGGSLKLSCAASGFTFSRYGMSWVRQTPDKRLEWVATISIGGTYTYYPDSMKGRFTISRDNAKNTLYLQMSSLKSEDTAMYYCARRGYGNYSYYGMDYWGQGTSVTVSS
VL: DIVMTQAAFSNPVTLGTSASISCRSSKSLLHSNGITYLYWYLQKPGQSPQLLIYQMSNLASGVPDRFSSSGSGTDFTLRISRVEAEDVGVYYCAQNLELPLTFGAGTKLELK
